Key:
[1] = target: Recombinant, his tagged full length human frataxin protein (Abcam ab95502) (human) (UniProt Q16595); assay: Simoa sandwich 2-step (120 min-5 min); capture Ab-1; Diluent 1 + 5% NCS; frataxin 0.823 pg/mL
[2] = target: Recombinant, his tagged full length human frataxin protein (Abcam ab95502) (human) (UniProt Q16595); assay: Simoa sandwich 2-step (120 min-5 min); capture Ab-1
[3] = target: Recombinant, his tagged full length human frataxin protein (Abcam ab95502) (human) (UniProt Q16595); assay: Simoa sandwich 2-step (120 min-5 min); capture Ab-1; Diluent 1 + 5% NCS; frataxin 7.41 pg/mL
[4] = target: Recombinant, his tagged full length human frataxin protein (Abcam ab95502) (human) (UniProt Q16595); assay: Simoa sandwich; capture Ab-1; no helper beads; frataxin 6.17 pg/mL
[5] = target: Recombinant, his tagged full length human frataxin protein (Abcam ab95502) (human) (UniProt Q16595); assay: Simoa sandwich 2-step (120 min-5 min); capture Ab-1; Diluent 1 + 10% NCS; frataxin 37.0 pg/mL
[6] = target: Recombinant, his tagged full length human frataxin protein (Abcam ab95502) (human) (UniProt Q16595); assay: Simoa sandwich 3-step; capture Ab-1; frataxin 1000 pg/mL
[7] = target: Recombinant, his tagged full length human frataxin protein (Abcam ab95502) (human) (UniProt Q16595); assay: Simoa sandwich 3-step; capture Ab-2; frataxin 10000 pg/mL
[8] = target: Recombinant, his tagged full length human frataxin protein (Abcam ab95502) (human) (UniProt Q16595); assay: Simoa sandwich; capture Ab-1; no helper beads; frataxin 0.686 pg/mL
[9] = target: Recombinant, his tagged full length human frataxin protein (Abcam ab95502) (human) (UniProt Q16595); assay: Simoa sandwich 2-step; capture Ab-1; frataxin 18.5 pg/mL
[10] = target: Recombinant, his tagged full length human frataxin protein (Abcam ab95502) (human) (UniProt Q16595); assay: Simoa sandwich 2-step (120 min-5 min); capture Ab-1; Diluent 1 + 10% NCS; frataxin 7.41 pg/mL
[11] = target: Recombinant, his tagged full length human frataxin protein (Abcam ab95502) (human) (UniProt Q16595); assay: Simoa sandwich 2-step; capture Ab-1; frataxin 100 pg/mL
[12] = target: Recombinant, his tagged full length human frataxin protein (Abcam ab95502) (human) (UniProt Q16595); assay: Simoa sandwich 2-step (35 min-5 min); capture Ab-1; with helper beads; frataxin 2.06 pg/mL
[13] = target: Recombinant, his tagged full length human frataxin protein (Abcam ab95502) (human) (UniProt Q16595); assay: Simoa sandwich 3-step; capture Ab-4; frataxin 100 pg/mL
[14] = target: Recombinant, his tagged full length human frataxin protein (Abcam ab95502) (human) (UniProt Q16595); assay: Simoa sandwich 2-step; capture Ab-2; frataxin 18.5 pg/mL
[15] = target: Recombinant, his tagged full length human frataxin protein (Abcam ab95502) (human) (UniProt Q16595); assay: Simoa sandwich 2-step (120 min-5 min); capture Ab-1; Diluent 1 + 5% NCS; frataxin 1000 pg/mL
[16] = target: Recombinant, his tagged full length human frataxin protein (Abcam ab95502) (human) (UniProt Q16595); assay: Simoa sandwich; capture Ab-1; no helper beads; frataxin 55.6 pg/mL
[17] = target: Recombinant, his tagged full length human frataxin protein (Abcam ab95502) (human) (UniProt Q16595); assay: Simoa sandwich 2-step; capture Ab-2
[18] = target: Recombinant, his tagged full length human frataxin protein (Abcam ab95502) (human) (UniProt Q16595); assay: Simoa sandwich 2-step (120 min-5 min); capture Ab-1; Diluent 1 + 10% NCS
[19] = target: Recombinant, his tagged full length human frataxin protein (Abcam ab95502) (human) (UniProt Q16595); assay: Simoa sandwich 2-step; capture Ab-1; 50 pM SβG; frataxin 55.6 pg/mL
[20] = target: Recombinant, his tagged full length human frataxin protein (Abcam ab95502) (human) (UniProt Q16595); assay: Simoa sandwich 2-step (35 min-5 min); capture Ab-1; with helper beads; frataxin 167 pg/mL
[21] = target: Recombinant, his tagged full length human frataxin protein (Abcam ab95502) (human) (UniProt Q16595); assay: Simoa sandwich 2-step (120 min-5 min); capture Ab-1; frataxin 222 pg/mL
[22] = target: Recombinant, his tagged full length human frataxin protein (Abcam ab95502) (human) (UniProt Q16595); assay: Simoa sandwich 2-step (35 min-5 min); capture Ab-1; with helper beads; frataxin 500 pg/mL
[23] = target: Recombinant, his tagged full length human frataxin protein (Abcam ab95502) (human) (UniProt Q16595); assay: Simoa sandwich 2-step; capture Ab-1; 150 pM SβG; frataxin 55.6 pg/mL
[24] = target: Recombinant, his tagged full length human frataxin protein (Abcam ab95502) (human) (UniProt Q16595); assay: Simoa sandwich 2-step (120 min-5 min); capture Ab-1; Diluent 1 + 10% NCS; frataxin 111 pg/mL

UniProt Q16595, sequence (Q16595 42-210): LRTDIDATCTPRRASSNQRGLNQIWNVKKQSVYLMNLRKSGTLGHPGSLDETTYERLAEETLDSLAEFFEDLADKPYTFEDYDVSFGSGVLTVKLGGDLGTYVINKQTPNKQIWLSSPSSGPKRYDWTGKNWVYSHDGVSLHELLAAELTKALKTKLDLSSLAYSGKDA

Work on “Ab-3, mouse monoclonal [18A5DB1] to Frataxin (Abcam ab110328) (antibody)” yielded an Ave AEB [1] of 0.0324 AEB, a S/B [1] of 1.79 and an LOD [2] of 0.465 pg/mL. The Ave AEB [3] was 0.156 AEB, the S/B [3] was 8.62 and the AEB Rep1 [4] was 0.118 AEB. The AEB Rep2 [4] was 0.141 AEB, the Ave AEB [4] was 0.13 AEB and the S/B [4] was 5.74. It also gave an Ave AEB [5] of 0.174 AEB, a S/B [5] of 16.2 and an Ave AEB [6] of 19.6 AEB. For the same substance, the S/B [6] was 333, the Ave AEB [7] was 32.2 AEB and the S/B [7] was 725. For the same substance, the AEB Rep1 [8] was 0.0328 AEB, the AEB Rep2 [8] was 0.028 AEB and the Ave AEB [8] was 0.0304 AEB. It also gave a S/B [8] of 1.34, an Ave AEB [9] of 1.98 AEB and a S/B [9] of 19.1. The Ave AEB [10] was 0.0923 AEB, the S/B [10] was 5.08 and the Ave AEB [11] was 7.11 AEB. The S/B [11] was 88.8, the AEB Rep1 [12] was 0.146 AEB and the AEB Rep2 [12] was 0.143 AEB. The Ave AEB [12] was 0.144 AEB, the S/B [12] was 5.93 and the Ave AEB [13] was 2.79 AEB. For the same substance, the S/B [13] was 23.8, the Ave AEB [14] was 2.15 AEB and the S/B [14] was 22.5. The Ave AEB [15] was 8.95 AEB, the S/B [15] was 815 and the AEB Rep1 [16] was 1.16 AEB. It also gave an AEB Rep2 [16] of 0.608 AEB, an Ave AEB [16] of 0.885 AEB and a S/B [16] of 39.1. It also gave an LOD [17] of 0.23 pg/mL, an LOD [18] of 0.759 pg/mL and an Ave AEB [19] of 1.65 AEB. The S/B [19] was 90, the AEB Rep1 [20] was 9.19 AEB and the AEB Rep2 [20] was 9.19 AEB. It also gave an Ave AEB [20] of 9.19 AEB, a S/B [20] of 377 and an AEB rep1 [21] of 1.01 AEB. For the same substance, the AEB rep2 [21] was 1.08 AEB, the AEB rep3 [21] was 1.04 AEB and the Ave AEB [21] was 1.04 AEB. It also gave a S/B [21] of 127, an AEB Rep1 [22] of 22.8 AEB and an AEB Rep2 [22] of 22.7 AEB. For the same substance, the Ave AEB [22] was 22.8 AEB, the S/B [22] was 935 and the Ave AEB [23] was 3.69 AEB. For the same substance, the S/B [23] was 82.3, the Ave AEB [24] was 0.515 AEB and the S/B [24] was 48.
